According to the supplement of paper PMC5998384:

Key:
[1] = test system: HeLa Kyoto; assay: solubility change mitosis vs G1/S (difference of NP-40 vs SDS log2 ratios) (log2 ratio difference); higher = more soluble in mitosis
[2] = test system: HeLa Kyoto; assay: solubility in G1/S (NP-40 vs SDS abundance) (log2 ratio); higher = more soluble; conditions: cell cycle stage: G1/S
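For solubility change mitosis vs G1/S (difference of NP-40 vs SDS log2 ratios) in this document: synchronized HeLa Kyoto cells (double thymidine block for G1/S, nocodazole release for mitosis), protein amounts in NP-40 versus SDS lysates quantified by mass spectrometry, three biological replicates.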
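For solubility in G1/S (NP-40 vs SDS abundance) in this document: HeLa Kyoto cells arrested at G1/S by double thymidine block, proteins quantified by TMT10plex mass spectrometry in mild NP-40 versus SDS extracts, three biological replicates.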

Chain of WRN (chain, as listed by the source): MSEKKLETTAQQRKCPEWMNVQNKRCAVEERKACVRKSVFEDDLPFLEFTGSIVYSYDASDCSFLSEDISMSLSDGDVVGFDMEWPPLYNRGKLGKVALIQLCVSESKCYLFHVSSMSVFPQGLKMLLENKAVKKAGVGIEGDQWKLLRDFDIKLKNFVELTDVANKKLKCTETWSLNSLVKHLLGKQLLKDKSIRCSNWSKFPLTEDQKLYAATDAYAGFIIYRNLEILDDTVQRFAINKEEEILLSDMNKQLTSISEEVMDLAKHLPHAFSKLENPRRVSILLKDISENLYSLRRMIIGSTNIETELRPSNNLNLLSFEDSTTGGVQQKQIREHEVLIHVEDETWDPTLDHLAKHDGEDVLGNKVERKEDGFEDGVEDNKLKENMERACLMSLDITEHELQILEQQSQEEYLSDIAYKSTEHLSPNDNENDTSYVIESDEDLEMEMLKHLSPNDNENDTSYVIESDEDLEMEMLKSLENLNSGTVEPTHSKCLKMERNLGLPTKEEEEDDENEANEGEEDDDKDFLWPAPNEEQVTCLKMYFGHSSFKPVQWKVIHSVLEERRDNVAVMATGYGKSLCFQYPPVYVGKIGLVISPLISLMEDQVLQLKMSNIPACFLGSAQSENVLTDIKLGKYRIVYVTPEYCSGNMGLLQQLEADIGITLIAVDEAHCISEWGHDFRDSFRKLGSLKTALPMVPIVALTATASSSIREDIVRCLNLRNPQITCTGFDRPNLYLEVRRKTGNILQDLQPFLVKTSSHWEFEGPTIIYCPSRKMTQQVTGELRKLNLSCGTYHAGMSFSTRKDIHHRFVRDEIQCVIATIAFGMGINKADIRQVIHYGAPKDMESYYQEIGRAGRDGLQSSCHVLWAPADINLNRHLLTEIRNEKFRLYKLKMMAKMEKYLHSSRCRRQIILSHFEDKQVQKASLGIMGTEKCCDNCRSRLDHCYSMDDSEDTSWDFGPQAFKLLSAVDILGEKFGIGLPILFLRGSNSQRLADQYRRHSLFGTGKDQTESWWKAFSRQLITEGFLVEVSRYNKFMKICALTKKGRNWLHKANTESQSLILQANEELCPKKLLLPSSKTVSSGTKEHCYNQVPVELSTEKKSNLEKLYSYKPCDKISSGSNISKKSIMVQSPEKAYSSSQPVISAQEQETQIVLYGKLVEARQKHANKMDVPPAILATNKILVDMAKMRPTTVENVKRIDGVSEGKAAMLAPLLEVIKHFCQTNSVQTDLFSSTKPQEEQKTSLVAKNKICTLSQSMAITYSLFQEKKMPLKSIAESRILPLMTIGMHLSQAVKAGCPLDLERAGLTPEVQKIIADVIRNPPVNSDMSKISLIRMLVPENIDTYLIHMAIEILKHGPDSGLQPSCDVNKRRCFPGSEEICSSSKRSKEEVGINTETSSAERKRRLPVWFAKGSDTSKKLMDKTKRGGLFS

Substance	solubility change mitosis (log2) [1]	solubility in G1/S (log2) [2]
WRN	0.124	-0.339
MNRHLCVWLFRHPSLNGYLQCHIQLHSHQFRQIHLDTRLQVFRQNRNCILHLLSKNWSRRYCHQDTKMLWKHKALQKYMENLSKEYQTLEQCLQHIPVNEENRRSLNRRHAELAPLAAIYQEIQETEQAIEELESMCKSLNKQDEKQLQELALEERQTIDQKINMLYNELFQSLVPKEKYDKNDVILEVTAGRTTGGDICQQFTREIFDMYQNYSCYKHWQFELLNYTPADYGGLHHAAARISGDGVYKHLKYEGGIHRVQRIPEVGLSSRMQRIHTGTMSVIVLPQPDEVDVKLDPKDLRIDTFRAKGAGGQHVNKTDSAVRLVHIPTGLVVECQQERSQIKNKEIAFRVLRARLYQQIIEKDKRQQQSARKLQVGTRAQSERIRTYNFTQDRVSDHRIAYEVRDIKEFLCGGKGLDQLIQRLLQSADEEAIAELLDEHLKSAK [MTRF1]	-0.0209	0.228
MAKPAATAAAASEELSQVPDEELLRWSKEELARRLRRAEGEKVGLMLEHGGLMRDVNRRLQQHLLEIRGLKDVNQRLQDDNQELRELCCFLDDDRQKGRKLAREWQRFGRHAAGAVWHEVARSQQKLRELEARQEALLRENLELKELVLLLDEERAALAATGAASGGGGGGGGAGSRSSIDSQASLSGPLSGGAPGAGARDVGDGSSTSSAGSGGSPDHHHHVPPPLLPPGPHKAPDGKAGATRRSLDDLSAPPHHRSIPNGLHDPSSTYIRQLESKVRLLEGDKLLAQQAGSGEFRTLRKGFSPYHSESQLASLPPSYQDSLQNGPACPAPELPSPPSAGYSPAGQKPEAVVHAMKVLEVHENLDRQLQDSCEEDLSEKEKAIVREMCNVVWRKLGDAASSKPSIRQHLSGNQFKGPL [CCDC85C]	0.214	0.216
MPVHSRGDKKETNHHDEMEVDYAENEGSSSEDEDTESSSVSEDGDSSEMDDEDCERRRMECLDEMSNLEKQFTDLKDQLYKERLSQVDAKLQEVIAGKAPEYLEPLATLQENMQIRTKVAGIYRELCLESVKNKYECEIQASRQHCESEKLLLYDTVQSELEEKIRRLEEDRHSIDITSELWNDELQSRKKRKDPFSPDKKKPVVVSGPYIVYMLQDLDILEDWTTIRKAMATLGPHRVKTEPPVKLEKHLHSARSEEGRLYYDGEWYIRGQTICIDKKDECPTSAVITTINHDEVWFKRPDGSKSKLYISQLQKGKYSIKHS [BRMS1L]	-0.0561	-0.0165
MDDSDTPTYYLQIEPQDGCHPGDSVERSVTCLPSASDENENQLDGDGHEHLTSSDSAMGKPQVSEQDSLNNNESCTLSCEVAAGENLQNTLCEASRDEQAFLGKDKKIPGKRSPRSKKGTAKKIPPGLFSGDIAPLMQEKVLSAVTYAVDDEEAAEVNANEQPEAPKLVLQSLFSLIRGEVEQLDSRALPLCLHQIAESYFQEEDYEKAMKFIQLERLYHEQLLANLSAIQEQWETKWKTVQPHTVTALRNSEKGFNGEDFERLTKICATHQDPLLSKHKIAAVEKSQERKCSTQLLVSEDPKEGGATTKESESKTCLGTESSKESQHTVEPLGSSPCCHQMDVQTDSPSLSVTAGKDHMEELLCSAEATLALHTQSSETAGSPSGPDSSEDACEDDSRLQLAQTEACQDVARIEGIAEDPKVFLSSKSKTEPLISPGCDRIPPALISEGKYSQAQRKELRLPLRDASEALPTDQLENNELNELQQPDLTDSDGKSPQAQADSDGSENVLCGNNQISDLGILLPEVCMAPEEKGDKDDQLNKETEDYLNSLLEGCLKDTEDSLSYEDNQDDDSDLLQDLSPEEASYSLQENLPSDESCLSLDDLAKRIEIAEVVPTEGLVSILKKRNDTVGDHPAQMQHKPSKRRVRFQEIDDSLDQDEVGGGSCILLVLLCIATVFLSVGGTALYCTFGDMESPVCTDFADNMDFYYTKLLQGVAELKHWIYLS [CNST]	-0.0548	0.292
MEGDGVPWGSEPVSGPGPGGGGMIRELCRGFGRYRRYLGRLRQNLRETQKFFRDIKCSHNHTCLSSLTGGGGAERGPAGDVAETGLQAGQLSCISFPPKEEKYLQQIVDCLPCILILGQDCNVKCQLLNLLLGVQVLPTTKLGSEESCKLRRLRFTYGTQTRVSLALPGQYELVHTLVAHQGNWETIPEEDLEVQENNEDAAHVLAELEVTMHHALLQEVDVVVAPCQGLRPTVDVLGDLVNDFLPVITYALHKDELSERDEQELQEIRKYFSFPVFFFKVPKLGSEIIDSSTRRMESERSPLYRQLIDLGYLSSSHWNCGAPGQDTKAQSMLVEQSEKLRHLSTFSHQVLQTRLVDAAKALNLVHCHCLDIFINQAFDMQRDLQITPKRLEYTRKKENELYESLMNIANRKQEEMKDMIVETLNTMKEELLDDATNMEFKDVIVPENGEPVGTREIKCCIRQIQELIISRLNQAVANKLISSVDYLRESFVGTLERCLQSLEKSQDVSVHITSNYLKQILNAAYHVEVTFHSGSSVTRMLWEQIKQIIQRITWVSPPAITLEWKRKVAQEAIESLSASKLAKSICSQFRTRLNSSHEAFAASLRQLEAGHSGRLEKTEDLWLRVRKDHAPRLARLSLESCSLQDVLLHRKPKLGQELGRGQYGVVYLCDNWGGHFPCALKSVVPPDEKHWNDLALEFHYMRSLPKHERLVDLHGSVIDYNYGGGSSIAVLLIMERLHRDLYTGLKAGLTLETRLQIALDVVEGIRFLHSQGLVHRDIKLKNVLLDKQNRAKITDLGFCKPEAMMSGSIVGTPIHMAPELFTGKYDNSVDVYAFGILFWYICSGSVKLPEAFERCASKDHLWNNVRRGARPERLPVFDEECWQLMEACWDGDPLKRPLLGIVQPMLQGIMNRLCKSNSEQPNRGLDDST [DSTYK]	-0.242	0.0887
MPKIVLNGVTVDFPFQPYKCQQEYMTKVLECLQQKVNGILESPTGTGKTLCLLCTTLAWREHLRDGISARKIAERAQGELFPDRALSSWGNAAAAAGDPIACYTDIPKIIYASRTHSQLTQVINELRNTSYRPKVCVLGSREQLCIHPEVKKQESNHLQIHLCRKKVASRSCHFYNNVEEKSLEQELASPILDIEDLVKSGSKHRVCPYYLSRNLKQQADIIFMPYNYLLDAKSRRAHNIDLKGTVVIFDEAHNVEKMCEESASFDLTPHDLASGLDVIDQVLEEQTKAAQQGEPHPEFSADSPSPGLNMELEDIAKLKMILLRLEGAIDAVELPGDDSGVTKPGSYIFELFAEAQITFQTKGCILDSLDQIIQHLAGRAGVFTNTAGLQKLADIIQIVFSVDPSEGSPGSPAGLGALQSYKVHIHPDAGHRRTAQRSDAWSTTAARKRGKVLSYWCFSPGHSMHELVRQGVRSLILTSGTLAPVSSFALEMQIPFPVCLENPHIIDKHQIWVGVVPRGPDGAQLSSAFDRRFSEECLSSLGKALGNIARVVPYGLLIFFPSYPVMEKSLEFWRARDLARKMEALKPLFVEPRSKGSFSETISAYYARVAAPGSTGATFLAVCRGKASEGLDFSDTNGRGVIVTGLPYPPRMDPRVVLKMQFLDEMKGQGGAGGQFLSGQEWYRQQASRAVNQAIGRVIRHRQDYGAVFLCDHRFAFADARAQLPSWVRPHVRVYDNFGHVIRDVAQFFRVAERTMPAPAPRATAPSVRGEDAVSEAKSPGPFFSTRKAKSLDLHVPSLKQRSSGSPAAGDPESSLCVEYEQEPVPARQRPRGLLAALEHSEQRAGSPGEEQAHSCSTLSLLSEKRPAEEPRGGRKKIRLVSHPEEPVAGAQTDRAKLFMVAVKQELSQANFATFTQALQDYKGSDDFAALAACLGPLFAEDPKKHNLLQGFYQFVRPHHKQQFEEVCIQLTGRGCGYRPEHSIPRRQRAQPVLDPTGRTAPDPKLTVSTAAAQQLDPQEHLNQGRPHLSPRPPPTGDPGSQPQWGSGVPRAGKQGQHAVSAYLADARRALGSAGCSQLLAALTAYKQDDDLDKVLAVLAALTTAKPEDFPLLHRFSMFVRPHHKQRFSQTCTDLTGRPYPGMEPPGPQEERLAVPPVLTHRAPQPGPSRSEKTGKTQSKISSFLRQRPAGTVGAGGEDAGPSQSSGPPHGPAASEWGL [RTEL1]	-0.104	-0.0713
MTEKAPEPHVEEDDDDELDSKLNYKPPPQKSLKELQEMDKDDESLIKYKKTLLGDGPVVTDPKAPNVVVTRLTLVCESAPGPITMDLTGDLEALKKETIVLKEGSEYRVKIHFKVNRDIVSGLKYVQHTYRTGVKVDKATFMVGSYGPRPEEYEFLTPVEEAPKGMLARGTYHNKSFFTDDDKQDHLSWEWNLSIKKEWTE [ARHGDIB]	-0.0572	0.0837
MELENIVANTVLLKAREGGGGNRKGKSKKWRQMLQFPHISQCEELRLSLERDYHSLCERQPIGRLLFREFCATRPELSRCVAFLDGVAEYEVTPDDKRKACGRQLTQNFLSHTGPDLIPEVPRQLVTNCTQRLEQGPCKDLFQELTRLTHEYLSVAPFADYLDSIYFNRFLQWKWLERQPVTKNTFRQYRVLGKGGFGEVCACQVRATGKMYACKKLEKKRIKKRKGEAMALNEKQILEKVNSRFVVSLAYAYETKDALCLVLTLMNGGDLKFHIYHMGQAGFPEARAVFYAAEICCGLEDLHRERIVYRDLKPENILLDDHGHIRISDLGLAVHVPEGQTIKGRVGTVGYMAPEVVKNERYTFSPDWWALGCLLYEMIAGQSPFQQRKKKIKREEVERLVKEVPEEYSERFSPQARSLCSQLLCKDPAERLGCRGGSAREVKEHPLFKKLNFKRLGAGMLEPPFKPDPQAIYCKDVLDIEQFSTVKGVELEPTDQDFYQKFATGSVPIPWQNEMVETECFQELNVFGLDGSVPPDLDWKGQPPAPPKKGLLQRLFSRQDCCGNCSDSEEELPTRL [GRK6]	-0.198	-0.123
MTDPFCVGGRRLPGSSKSGPGKDGSRKEVRLPMLHDPPKMGMPVVRGGQTVPGQAPLCFDPGSPASDKTEGKKKGRPKAENQALRDIPLSLMNDWKDEFKAHSRVKCPNSGCWLEFPSIYGLKYHYQRCQGGAISDRLAFPCPFCEAAFTSKTQLEKHRIWNHMDRPLPASKPGPISRPVTISRPVGVSKPIGVSKPVTIGKPVGVSKPIGISKPVSVGRPMPVTKAIPVTRPVPVTKPVTVSRPMPVTKAMPVTKPITVTKSVPVTKPVPVTKPITVTKLVTVTKPVPVTKPVTVSRPIVVSKPVTVSRPIAISRHTPPCKMVLLTRSENKAPRATGRNSGKKRAADSLDTCPIPPKQARPENGEYGPSSMGQSSAFQLSADTSSGSLSPGSRPSGGMEALKAAGPASPPEEDPERTKHRRKQKTPKKFTGEQPSISGTFGLKGLVKAEDKARVHRSKKQEGPGPEDARKKVPAAPITVSKEAPAPVAHPAPGGPEEQWQRAIHERGEAVCPTCNVVTRKTLVGLKKHMEVCQKLQDALKCQHCRKQFKSKAGLNYHTMAEHSAKPSDAEASEGGEQEERERLRKVLKQMGRLRCPQEGCGAAFSSLMGYQYHQRRCGKPPCEVDSPSFPCTHCGKTYRSKAGHDYHVRSEHTAPPPEEPTDKSPEAEDPLGVERTPSGRVRRTSAQVAVFHLQEIAEDELARDWTKRRMKDDLVPETARLNYTRPGLPTLNPQLLEAWKNEVKEKGHVNCPNDCCEAIYSSVSGLKAHLASCSKGAHLAGKYRCLLCPKEFSSESGVKYHILKTHAENWFRTSADPPPKHRSQDSLVPKKEKKKNLAGGKKRGRKPKERTPEEPVAKLPPRRDDWPPGCRDKGARGSTGRKVGVSKAPEK [ZNF512B]	0.776	-0.767
